Test results taken from the RNAGym collection of RNA variant scans (doi:10.7554/elife.80360).

B1: HDV Ribozyme (parent)
chain: GGCCGGCAUGGUCCCAGCCUCCUCGCUGGCGCCGGCUGGGCAACAUUCCGAGGGGACCGUCCCCUCGGUAAUGGCGAAUGGGACCCA

Variants of: B1
Experiment: self-cleavage, relative activity (ratio to wild type); higher = more cleavage; co-transcriptional

Variant	self-cleavage
GGCCGGCAUGGUCCCAGCCUCCUCGCCGGCGACGGCUGGGCAACAUUCCGAGGGGACCGUCCCCUCGGUAAUGGCGAAUGGGACCCA [U27C C32A]	0.0519
GGCCGGCAUGGUCCCCGCCUCCUCGCUGGCGCCGGCUGGGAAACAUUCCGAGGGGACCGUCCCCUCGGUAAUGGCGAAUGGGACCCA [A16C C41A]	0.388
UGCCGGCAUGGUCCCAGCCUCCUCGCUGGCGCCGGCUGGGCAACAUUCCGAGGGGACCGUCCGCUCGGUAAUGGCGAAUGGGACCCA [G1U C63G]	0.453
GGCCGGCAUGGUCCCAGCCUCCUCGCUGGCGCCGGCUGGGCAACAUUCCGAGGGGACCGUCCGCUCGGUAAUGGCGGAUGGGACCCA [C63G A77G]	0.268
GGCCGGCAUGGUCCCCGCCUCCUCGCUGGCGCCGGCUGGGCAACAUUCCGAGGGGGCCGUCCCCUCGGUAAUGGCGAAUGGGACCCA [A16C A56G]	0.776
GGCCGGCAUGGUCCCAGCCUCCUCGCUGGCGCCGGCUGGGCAACAUUCCGAGGGGGCCGUCUCCUCGGUAAUGGCGAAUGGGACCCA [A56G C62U]	0.912
GGCCGGCAUGGUCCCAGCCUCCUCGCUGGCGCCGGCUGGGCAACAUUCCUAGGGGACCGCCCCCUCGGUAAUGGCGAAUGGGACCCA [G50U U60C]	0.938
GGCCGGCAUGGUCCCAGCUUCCUCGCUGGCGCCGGCUGGGCAACAUUCCGAGGGGACCGUCACCUCGGUAAUGGCGAAUGGGACCCA [C19U C62A]	0.142
GGCCGGCAUGGUCCCAGACUCCUCGCUGGCGCCGGCUGGGCAACAUUCCGAGGGGACCGUCCCCUCGGUAACGGCGAAUGGGACCCA [C18A U72C]	0.0437
GGCCGGCAUGGUCCCAGCCUCCUCGCUGGCGCCGGCUGGGCAACGUUCCGAGGGGACCGUCCCCUCGGUAAUGGCGAAUAGGACCCA [A45G G80A]	0.177
GGCCGGCAUGGUCCCAGCCUCCUCGCUGGCGCCGGCUGGGCAACAUUACGAGGGGACCGUCCCCUCGGUAAUGGCGAAUGGGACCCG [C48A A87G]	0.955
GGCGGGCAUGGUCCCAGCCUCCUCGCUGGCGCCGGCGGGGCAACAUUCCGAGGGGACCGUCCCCUCGGUAAUGGCGAAUGGGACCCA [C4G U37G]	0.0489
CGCCGGCAUGGUCCCAGCCUUCUCGCUGGCGCCGGCUGGGCAACAUUCCGAGGGGACCGUCCCCUCGGUAAUGGCGAAUGGGACCCA [G1C C21U]	0
GGCCGGCAUGGUCCCAGCCUCCUCGCUGGCGCCGGCUGGGCAACAUUCCGAGGGGACCGUUCCCUCGGUAAUGGCGAAUCGGACCCA [C61U G80C]	0.115
GGCCGGCAUGGUCCCAGCCUCCUCGCUGGCGCCGGCUGGGCAACAUUCCGAGGCGACCGUCCCCUCGGCAAUGGCGAAUGGGACCCA [G54C U69C]	0.99
GGCCGGCAUGGUCCCAGCCUCCUCGCUGGCGCAGGCUGGGCAACAUUCCGAGGGGACCGUCCCCUCGGUAAUGGCGUAUGGGACCCA [C33A A77U]	0.0923

Variant	self-cleavage
GGCCGGCAUGGUCCCAACCUCCUCGCUGGCGCCGGCUGGGCAACAUUCCGAGGGGGCCGUCCCCUCGGUAAUGGCGAAUGGGACCCA [G17A A56G]	0.59
GGCCGGCAUGGUCCCAGCCUCCUCGCUGGCGCCGGCUGGGCAACAUUCCGAGGGGACCGUCCUGUCGGUAAUGGCGAAUGGGACCCA [C63U C64G]	0.809
GGCCGGCAUGGUCCCAGCCUCCUCGCUGGCGCCGGCUGGGCAACAUUCCGUGGGGACCGUCCCCUCGGUAAUGGCGUAUGGGACCCA [A51U A77U]	0.815
GGCCGGCAUGCUCCCAGCCUACUCGCUGGCGCCGGCUGGGCAACAUUCCGAGGGGACCGUCCCCUCGGUAAUGGCGAAUGGGACCCA [G11C C21A]	0.0755
GGCCGGCAUGGUCCCAGCCUUCUCGCUGGCGCCGGCUGGGCAACAUUCCGAGGGGACCGCCCCCUCGGUAAUGGCGAAUGGGACCCA [C21U U60C]	0.219
GGCCGGCAUGGUCCCAGCCUCCUCGCUGGCGCCGGCUGGGCAACAUUCCGAGUGGACCGUCGCCUCGGUAAUGGCGAAUGGGACCCA [G53U C62G]	0.793
GGCCGGCAUGGUCCCAGCCUCCUCGCUGGCGCCGGCUGGGCAACAUUCCGAGGGGACCGUCCCAUCGGUAAUGGCGAAUGGUACCCA [C64A G82U]	0.409
GGCCGGCAUGGUCCCAGCCUCCUCGCUGGCGCCGGCUGGGCAACAUACCGAGGGGACCGUCCCCUCGGUAAUGGCGAAGGGGACCCA [U47A U79G]	0.895
GGCCGGCAUGGUCCCAGCCUCCUCGCUGGCGCCGGCUGGUCAACAUUCCGAGGGGACCGUCCCCUCGGUAUUGGCGAAUGGGACCCA [G40U A71U]	0.459
GGCCGGCAUGGUCCCAGCCUCCUCGCUGGCGCCGGCUGGGUAACAUUCCGAGGGGACCGUCCCCUCGGUAAUGGCGAAUGGGCCCCA [C41U A83C]	0.332
GGCCGGCAUGGUCCCGGCCUCCUCGCUGGCGCCGGCUGGGCAACAUUCGGAGGGGACCGUCCCCUCGGUAAUGGCGAAUGGGACCCA [A16G C49G]	0.875
GGUCGGCAUGGUCCCAGCCUCCUCGCUGGCGCCGGCUGGGCAACAUUCCGAGGGGACCGCCCCCUCGGUAAUGGCGAAUGGGACCCA [C3U U60C]	0.943
GGCCGGCAUGGUCCCAGCCUCGUCGCUGGCGCCGGCUGGGCAACAUCCCGAGGGGACCGUCCCCUCGGUAAUGGCGAAUGGGACCCA [C22G U47C]	0.18
GGCCGGCAUGGUCCCAGCCUCCUCGCUGGCGCCGGCUCGGCAACAUUCCGAGGGGACCGUCCCCUCGGUAAUGGCGAAUCGGACCCA [G38C G80C]	0.145
GGCCGGCAUGGUCCCAGCCUCCUCGCUGGCGCCGGCUGGGCAACAUUCCGAGGGGACCGUCUCCUCGGUAAUGGCAAAUGGGACCCA [C62U G76A]	1.12
GGCCGGCAUGGUCCCAGCCUCCUCGCUGGCGCCGGCUGGGCAACAUUCCGACGGGACCGUCCCCUCGGUAAUGGCGAACGGGACCCA [G52C U79C]	0.582
